The data set can be described thus: soluble on expression in E. coli; label from the status in PepcDB or PDB records.
For “SDEINAQSVWSEEISSNYPLCIKNLMEGLKKNHHLRYYGRQQLSLFLKGIGLSADEALKFWSEAFTNMTMEKFNKEYRYSFRHNYGLEGNRINYKPWDCHTILSKPRPGRGDYHGCPFRDWSHERLSAELRSMKLTQAQIISVLDSCQKGEYTIACTKVFEMTHNSASADLEIGEQTHIAHPNLYFERSRQLQK”, the “soluble on expression in E. coli” value is “soluble”.

As to “MTHQDTIASEDGSDINILLNTVQNAKALVIFAHGAGANMSHEFMNETSRLLNHLGINVLRFNFPFMDKRALTGKKYPPDRMPKLLLCYETVIEYVVDKKLSHQLPLFIGGKSMGSRVAASLVADSDLLKSRLLNHISGVFCIGYPFHPAKKPEKLRLEPLVDANKPVLIVQGDRDTLGNKVEIASYRLAEHCQCVFLEDGDHSLKPRVKSGFTHQAHMQSAVEEIVTFIERVTISS”, the “soluble on expression in E. coli” value is listed as “not soluble”.

Turning to “MILNPQQRTKLDSRRDDLFYAAPRFVTHVDDFFLARLTDLYRQYLQPQMRVLDLMSSWVSHLPPELSFQEVVGHGMNAAELARNPRLDRYFVQNLNEELALPLEDASFNAVLMAVSVQYLQYPEATFTEIARILKPQGVVIVSFSNRMFFEKAIQAWREGSEGDRVQLVQTYINSTPSLKVIATHLPRLWPWRGFTDPFYAVVGQKQAVLEHHHHHH”, the “soluble on expression in E. coli” value is listed as “soluble”.

Take “MSNNDCISTDKVDLDKKQIKKFLKQINISQLTKMIQFIDNKLLSDWDFNCLTYFDESEYPFFDINLSLICTIDHNIPINIIINFLCFVEKQYNNVPYHNTIHATMVTQKFFCLAKKLGIYDDLEYKIKLVMFISGICHDIGHPGYNNLFFVNSLHPLSIIYNDISVLENYHASITFKILQLNQCNILKNFSEKDFRMMRSYIIELILSTDMKHHFEIISKFRIRRENEDFDYIKNSDDLLILTKMIIKSADISHGSVSWSEHYCWCQRVLSEFYTQGDEELKNKMPLSPLCDRTKHNEVCKSQITFLKFVVMPLFEELSHIDNNKFIKSFCLKRLNSNCIMWDTLMKEEKTIE”: the “soluble on expression in E. coli” value is on record as “soluble”.

As to “MGSDKIHHHHHHMNSLLASIDSSRAMPVLEDITQHEISALKTRFNLADAHTHQDQSDTQRMIVASLPELWYQAQNQTQYQSEQAFIRAFFTFHGQHHALKRHDEIYLVYAASIAMHITATYLRKNTLSVGLIEPCFDNLHDLLKHMEVPMSPLDESLFSSSSEVYANLQKAAIGLDAIFLVDPNNPTGSSLFADGPDTFVEVARYCRDYNKLLILDFCFASFFMAAGRERVDAYAILDDIGTRYLIMEDTGKTWPLQDTKCATLMASKDINAEIYSIVTSVLLNVSPFILNVVTRYIEDSNDDDFNSVRSVLEVNRRRARDCLEGKVLKYMQPMIDTSVAWFEILPAGIDADELQTYLLQWDVYVLPGKYFYWSQPEKGQRYIRLALARKPEEFDAAVQMIAHALEHFHV”, the “soluble on expression in E. coli” value is “not soluble”.

On to “MGSDKIHHHHHHMRERTVDYSFCGMVRSRERLARQIVFHHIPKTAGSSFNQILRTLYRDDEVCDAALDDELDEVMADETRRYELFVGHFSFDALHRHFGGATRLTFLRDPVQRCISQYHNWHDASRYSDAWIGRSDTNPDVIKALKMTSEMSLCEFVSSDNLVISDSAQNMMTRYLAPSVEWKKERGYYDAELVEKAKRNLVEYFHFFGLTEQFDRSLVLLAHTLGIRPWERSDALLTNRNPKKASFDSVYNTTPEEGGVLRDYNLMDIELYEFAVKEFNRRFDAGYQKLVECAFEYLADKDTRDMGNAGDFYAFDMTNAVGARGLHFLESTRLPCGADVLGRWTGLEPRAVWEIPLRAGRDSHVVIEVDYIDSVSPEALAPEHFTLNGMPARQHAFSAEGSIQRLRLVFSAGAALAGRMLHTLKLTTPLVRAEDGTRDVGVLLLRLQSYSV”, for which the “soluble on expression in E. coli” value was “not soluble”.

As to “MIIPLVFLIGFAAAGNFGSSSSESCEDGNGGGRPRPGNGGGRPPGNGNGNGNGGGRPTNGGCDAGWRRFNRPNGGWCVRVFGARMTQADAQIQCQSYGATLSSLQNMEEALQINNMALSVIKANTGSVWIGAKRTTACLKQWLWTNGCGRQNSFAWTDGSATGVAGFVWDNLQPDNDELKQPCAVMLAARAAVTWGGKFWQPAMLDDNNCMFDLEGKHPRSVYGYVCGKNSRA”, the “soluble on expression in E. coli” value is reported as “not soluble”.

Consider “MMQIRPVSDLRNKFSEIENIIISNKSPVFLTKNGHGSMVLMSLDMYESLTDNVENRLDEADFQAASTNVRLSHKDVFSDIRSKI”, for which the “soluble on expression in E. coli” value is recorded as “not soluble”.

Regarding “MDRIPFGIRQLDSIINGGAPAGSVVLLSGEAGAGSREFMHTSALINGLEQVDTELHDLYYGDRSPDAVAPDEVHYISFTTNESQLVSEMRLAMDDDVVDKGSRAVEFHDLSERYFHISPVPREWYASETASITDLRARHEREDLLGTLGMVLNEVAANNLVVIDSLSDLVSAMGEEIEWSDISSLVQGLQKAAHQWGCLLLLHINPETLSTVRHGQLVDASHGTMEFAWESGGSTRARTLVVQQFRGVLSQIEDEDIVQFETELGDAGFDISDVRKIRLEHHHHHH”, the “soluble on expression in E. coli” value is recorded as “not soluble”.

Take “MAHHHHHHMTSSSVTPDQVLAFTAPTERFLCPLTANKYGVEFYQFTIRDIEQNKVLFEVGEAPDGSADGSVTDMLARVAQLSEEEAAAARTIRYRFAPSFLRKTAVGAKLVFGVNGDQPVPKFRMIERHYFRNVLIKSFDFEFGFCIPHSTNTWEAIYDMPSLNPEWEEAIVASPFEMASDSFYFVGNELIMHNKAYYAYDGEEL”: the “soluble on expression in E. coli” value was “not soluble”.

Take “MGSDKIHHHHHHMLDCHEDTLVILAKNIAVEMHYHHAIQLVLSLDKPYDAVLDHQPIESVKGFLIDSDIPHACQSADSTVLVISVDASSSKGRLLKSHLLKRTFILIDELFSAEAIDEFLNFYWRCCDTSQHEFDPLYFLHKLSHEQRNITPFDARLLIAIDFINQDISQIIKVIDIARHISLSESRLRHLFTEQVGIPLTKYVLWVRMKVALREMLKPGVTLSDAAHQAGFTDHAHFTRTFRRMFGVSPSLLLKYGQFLQIFGL”: the “soluble on expression in E. coli” value was “not soluble”.

As for “MGSDKIHHHHHHMPLSIITNTFAGNPLDRDSERRGDEAFLAEKLADPESLAVALWNGKPLVEDILGEDGKPTGVQIAYLRADMAQDLAGGSEKLLYMGLWKDIAVFAVDIEGAADPAEGPLQGLGRFEELRGAAASMPPADAGILATAKSMFEWRRRHRWCSACGQKTEVSDGGWKRVCPSCEAEHFPRTDPVAIMLAIHDGKCLLGRQAMWPQGMFSALAGFIEPGETIEEACARELQEEAGLKATAVRYHSSQPWPWPSSLMMGLIAEVDSDEAAPDQTELEEVRWFTREEALQLIRGELDGLFAPPPLAIAHQLIKAWAEEA”, the “soluble on expression in E. coli” value is given as “not soluble”.

For the sequence “MDINTDKYKNITRNLEREMINLNPIQRGGILPTESKKIIYEYWDGYSVCDYCSGRLDQIETPPINEFLEDMSKFLGMDITRPTHGARESKYAVMNSICKEGDYVVLDGNAHYTSYVALERAKLNYEKTDIEEYPTFRVIPESYAEKIDMLEDSKKNIGLILLTHVDGNYGNVADVEKVGKIAKSKGYPFLLNCAYSAGRMPIDGKKLNVDFIAASGHKSMAASGPCGLLSINKKYENEVLETSKVNVLKELQMLGCTSRGIPILSLMASFEHLIERVKKWDLELEKTRKVVNELEPLGFKQIGEKPRNHDIIRFETPILDEIAEKDKRRGFFFYEELKKRGIGGIRRGVTKEFKMSVYGLTNTQVDYVINSMKSIINELR”, the “soluble on expression in E. coli” value was “not soluble”.

In the case of “MGSDKIHHHHHHMTLGIAFVGSGFSAKFHLRGLVGVRNVEVKGVYSRNLNSSKEFAMLSEQLGLGKPKVYSDISKMLSDKEINAVWLTVPNDVHLEYTKLIAEEVSQGRSNIHGITIEKPLARNVKEAKEMIRLVEKAGLLHGYLENQIFMPSVVRAREAIWEIGSRNSGRPYLARAAEEHSGPHNSWFWRPTISGGGALIDMTCHSLEATRFLLTDPAKTKSSLKPKTVYAETKTLKWNKKEYAQYLKEKYNVDFLKEPAEDYALTIVTYEDDLGNSVLAETRTSWNYVGPGLRLSVEVLGPEYSVNINTLQSELSVFFSRNIKLPQSEAFVEKQNADQGLMPIILDEAVVYGYQGEDRHMVESFISRKMPFENWYDGLLIVQLMMHAYLSAENGRKISFDPQKVEDFIPKVARGLYSAF”, the “soluble on expression in E. coli” value is listed as “not soluble”.

For the sequence “MKGRIELGDVTPHNIKQLKRLNQVIFPVSYNDKFYKDVLEVGELAKLAYFNDIAVGAVCCRVDHSQNQKRLYIMTLGCLAPYRRLGIGTKMLNHVLNICGWMDGWMDGWMDGRASEIVEIPCLFLGYQFPKQSKSKLRSLVLSTFTLMDKLQRALAKRRGHK”, the “soluble on expression in E. coli” value is “not soluble”.

In the case of “MSASFDRYVSFQHCDWEGRSERVMQRLQRHVEAAENPFWAYFAQKRAELRDKQGLDDLRILHNYLPTLRELLEDNGDLETLEMLEDLEANLM”, the “soluble on expression in E. coli” value is “not soluble”.

Turning to “MSSGSAGAPALSNNSTNSVAKEKSGNISGDEYLSQEEEVFDGNDIENNETKVYEESLDLDLERSNRQVWLVRLPMFLAEKWRDRNNLHGQELGKIRINKDGSKITLLLNENDNDSIPHEYDLELTKKVVENEYVFTEQNLKKYQQRKKELEADPEKQRQAYLKKQEREEELKKKQQQQKRRNNRKKFNHRVMTDRDGRDRYIPYVKTIPKKTAIVGTVCHECQVMPSMNDPNYHKIVEQRRNIVKLNNKERITTLDETVGVTMSHTGMSMRSDNSNFLKVGREKAKSNIKSIRMPKKEILDYLFKLFDEYDYWSLKGLKERTRQPEAHLKECLDKVATLVKKGPYAFKYTLRPEYKKLKEEERKATLGELADEQTGSAGDNAQGDAEADLEDEIEMEDVV”, the “soluble on expression in E. coli” value was “soluble”.

For “MANSITADEIREQFSQAMSAMYQQEVPQYGTLLELVADVNLAVLENNPQLHEKMVNADELARLNVERHGAIRVGTAQELATLRRMFAIMGMYPVSYYDLSQAGVPVHSTAFRPIDDASLARNPFRVFTSLLRLELIENEILRQKAAEILRQRDIFTPRCRQLLEEYEQQGGFNETQAQEFVQEALETFRWHQSATVDEETYRALHNEHRLIADVVCFPGCHINHLTPRTLDIDRVQSMMPECGIEPKILIEGPPRREVPILLRQTSFKALEETVLFAGQKQGTHTARFGEIEQRGVALTPKGRQLYDDLLRNAGTGQDNLTHQMHLQETFRTFPDSEFLMRQQGLAWFRYRLTPSGEAHRQAIHPGDDPQPLIERGWVVAQPITYEDFLPVSAAGIFQSNLGNETQTRSHGNASREAFEQALGCPVLDEFQLYQEAEERSKRRCGLL”, the “soluble on expression in E. coli” value is recorded as “not soluble”.

On to “MSLTEQRAVIAIYLRLSRESDDSTSLETQRSFAHRWLLAHGYDPADAVEYIDASVSGAKPLEARKGMAALMAARPTVVVAWKLDRFARSVSDFLRLVAWAEAHGASIATTDNAIDTTTATGRMVATVLAALAEWERNAIASRITDGHATRRSQGRWSSGRPPFGYRIERRDGAAYLAIDDDQAAKIRKAVAALVNGSTVAATARLTGLSEPQWRRLLKSPTLRGQRAHKGELVCEVDGITPVKFAEPILSAAELLKVRERMLALATGQDRAPRRATPMCSGMAFCHRCAGKLNGGTSDKGVPLYRCKAGHVTIYAETLDSRVESEFLTTFGSYAETVIRLEGGNDLSAELLEAKEQAERLAARMATAGPLMLGTLESLAQDLEDTHARLRAAHDPDVREVQVATGRTMAQAWEMYDVPDRSRLLAGMGLRVSLHPRQLADRLTITWGPTPEEAPEAEWDGLALSEAEGHHHHHH”, for which the “soluble on expression in E. coli” value is “not soluble”.

In the case of “MSLDTYTTSEVADLIGVHPNTVRLYEELNLIPKPKRNTNGYRIFNDFHIEQFRFARTALKIEVVQRGLRKDALEIVRTSANRDFDKAISLVNQYLQQLEIEKSNAEEALTIVAQILNGNTPETNKLFLTRKETAEHLNEGHHHHHH”, the “soluble on expression in E. coli” value is “not soluble”.

As to “LFPDELIDQLLAQVQGKDAESILGESGLAGQLKKQLAERMLAAELSHHLAAETEQGRAGNHRNGTSAKTVLTPNGELKLDIPRDRQATFEPQLVGKYQRRLPGFDDHVISMYARGMSVREIQGHLLELYGLQVSPDLISTVTDEVLADVEQWQQRPLEAMYPIVYFDALRLKIRDEGTVKNKAVYLALGIRAEGRKEVLGLWIEQTEGAKFWLKVFNELRTCQEFRVLRPVK”, the “soluble on expression in E. coli” value is recorded as “not soluble”.

Source of the values: the DeepSol protein solubility set.
